Experimental data as given in IntAct's records for PubMed 22402663.

B1: Forkhead box protein O3 (Mus musculus), Q9WVH4 (parent)
chain: MAEAPASPVPLSPLEVELDPEFEPQSRPRSCTWPLQRPELQASPAKPSGETAADSMIPEEDDDEDDEDGGGRASSAMVIGGGVSSTLGSGLLLEDSAMLLAPGGQDLGSGPASAAGALSGGTPTQLQPQQPLPQPQPGAAGGSGQPRKCSSRRNAWGNLSYADLITRAIESSPDKRLTLSQIYEWMVRCVPYFKDKGDSNSSAGWKNSIRHNLSLHSRFMRVQNEGTGKSSWWIINPDGGKSGKAPRRRAVSMDNSNKYTKSRGRAAKKKAALQAAPESADDSPSQLSKWPGSPTSRSSDELDAWTDFRSRTNSNASTVSGRLSPILASTELDDVQDDDGPLSPMLYSSSASLSPSVSKPCTVELPRLTDMAGTMNLNDGLAENLMDDLLDNIALPPSQPSPPGGLMQRGSSFPYTAKSSGLGSPTGSFNSTVFGPSSLNSLRQSPMQTIQENRPATFSSVSHYGNQTLQDLLASDSLSHSDVMMTQSDPLMSQASTAVSAQNARRNVMLRNDPMMSFAAQPTQGSLVNQNLLHHQHQTQGALGGSRALSNSVSNMGLSDSSSLGSAKHQQQSPASQSMQTLSDSLSGSSLYSASANLPVMGHDKFPSDLDLDMFNGSLECDMESIIRSELMDADGLDFNFDSLISTQNVVGLNVGNFTGAKQASSQSWVPG
partner: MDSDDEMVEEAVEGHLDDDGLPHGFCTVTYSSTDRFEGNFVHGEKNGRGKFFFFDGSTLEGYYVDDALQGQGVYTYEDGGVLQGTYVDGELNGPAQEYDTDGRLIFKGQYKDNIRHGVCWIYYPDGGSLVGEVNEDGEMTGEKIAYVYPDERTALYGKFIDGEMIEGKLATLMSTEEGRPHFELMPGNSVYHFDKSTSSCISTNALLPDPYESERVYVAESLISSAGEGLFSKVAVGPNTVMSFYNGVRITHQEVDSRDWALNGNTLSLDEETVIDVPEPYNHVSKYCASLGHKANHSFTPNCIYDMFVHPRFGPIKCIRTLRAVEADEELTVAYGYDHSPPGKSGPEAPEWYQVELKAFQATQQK
B2: Histone-lysine N-methyltransferase SETD7 (Homo sapiens), Q8WTS6 (parent)
chain: B1 partner

Variants of: B1
Conditions: with setd7_human SETD7, Q8WTS6

| effect of a mutation on the interaction | Variant |
| --- | --- |
| disrupting interaction | K270R |

Variants of: B2
Conditions: with foxo3_mouse Foxo3, Q9WVH4

| effect of a mutation on the interaction | Variant |
| --- | --- |
| disrupting interaction | H297A |
